# “Also recorded” adds a separate entry of the source.
# B1: Tp17-HIS: recombinant mature Tp17 (residues 23 to 156) with histidine tail, expressed in E. coli EcBK633 (protein)
# chain: VSCTTVCPHAGKAKAEKVECALKGGIFRGTLPAADCPGIDTTVTFNADGTAQKVELALEKKSAPSPLTYRGTWMVREDGIVELSLVSSEQSKAPHEKELYELIDSNSVRYMGAPGAGKPSKEMAPFYVLKKTKK
# modifications: left off: small tags and cut ends
# notes: recombinant mature Tp17 (residues 23 to 156) with histidine tail, expressed in E. coli EcBK633
# B2: human lysozyme: human lysozyme (NP_000230); breast milk (Sigma) or recombinant (Ventria) depending on the example (protein)
# chain: KVFERCELARTLKRLGMDGYRGISLANWMCLAKWESGYNTRATNYNAGDRSTDYGIFQINSRYWCNDGKTPGAVNACHLSCSALLQDNIADAVACAKRVVRDPQGIRAWVAWRNRCQNRDVRQYVQGCGV
# B3: E. coli Ivy: Escherichia coli inhibitor of vertebrate lysozyme (P45502) (protein)
# chain: QDDLTISSLAKGETTKAAFNQMVQGHKLPAWVMKGGTYTPAQTVTLGDETYQVMSACKPHDCGSQRIAVMWSEKSNQMTGLFSTIDEKTSQEKLTWLNVNDALSIDGKTVLFAALTGSLENHPDGFNFK
# B4: GST-Tp47: control fusion protein of GST and T. pallidum Tp47 antigen (protein)
# chain: CGSSHHETHYGYATLSYADYWAGELGQSRDVLLAGNAEADRAGDLDAGMFDAVSRATHGHGAFRQQFQYAVEVLGEKVLSKQETEDSRGRKKWEYETDPSVTKMVRASASFQDLGEDGEIKFEAVEGAVALADRASSFMVDSEEYKITNVKVHGMKFVPVAVPHELKGIAKEKFHFVEDSRVTENTNGLKTMLTEDSFSARKVSSMESPHDLVVDTVGTGYHSRFGSDAEASVMLKRADGSELSHREFIDYVMNFNTVRYDYYGDDASYTNLMASYGTKHSADSWWKTGRVPRISCGINYGFDRFKGSGPGYYRLTLIANGYRDVVADVRFLPKYEGNIDIGLKGKVLTIGGADAETLMDAAVDVFADGQPKLVSDQAVSLGQNVLSADFTPGTEYTVEVRFKEFGSVRAKVVAQ
# modifications: left off: a dimerising Fc or GST
# notes: control fusion protein of GST and T. pallidum Tp47 antigen
# Assays:
# [1] = molecular target: T1, chicken lysozyme (Gallus gallus, UniProt P00698); test: Lysozyme inhibition assay (EnzCheck, fluorescein-labeled Micrococcus lysodeikticus); type: biochemical
# Method: (§1) To test this hypothesis, the antibacterial activity of both human and chicken lysozyme, in the presence or absence of GST-Tp17, was assayed using an EnzCheck® lysozyme assay kit (Molecular Probes, Eugene, Oreg.). The assay comprises the use of Fluorescein-labeled Micrococcus lysodeikticus bacterial cells as a fluorescent substrate of lysozyme. In this Gram positive bacterium, the peptidoglycan layer is directly accessible to lysozyme, and has been Fluorescein-labeled such that fluorescence is naturally quenched. Upon lysozyme hydrolysis, quenching is relieved and fluorescein is released in a quantity that is proportional to lysozyme activity. The following experimental protocol was used.
# (§2) A typical 100 μl reaction consisted of 25 μl of lysozyme solution (10 units for chicken lysozyme or 50 units for human lysozyme, dissolved in deionized water), 25 μl of the test protein solution and 50 μl of a suspension of fluorescein-labeled Micrococcus lysodeikticus (50 μg/ml). The reaction was incubated for 45 minutes at 37° C. and the fluorescence was measured (λexc.=485 nm; λemi.=520 nm) using a fluorescence multi-well plate reader model FLx800 (Bio TEK instruments, Winoosky, Vt.) equipped with KC junior data acquisition software (Bio TEK Instruments, Winoosky, Vt.). Each experimental point was expressed as the mean and standard deviation corresponding to the reading of three independent wells. Wells containing 50 μl of deoinized water and […] of Fluorescein-labeled Micrococcus lysodeikticus suspension were used as a blank. Two fold serial dilutions of test protein were used to vary the concentration of the test protein from 83.5 to 1.3 μg/well.
# [2] = test system: human lysozyme; test: as above; type: biochemical
# Method: as §1, §2
# [3] = molecular target: T1, chicken lysozyme; test: Far Western blot lysozyme-protein interaction assay; type: binding; details: 1, 5, 10 μg immobilized lysozyme; washes with 0.05% Tween 20
# Method: (§3) In order to test this hypothesis, a Far-Western blot lysozyme-protein interaction assay was performed. The assay is summarized in FIG. 5 and comprises generally the following three steps: (1) immobilization of purified lysozyme onto a membrane; (2) probing of the membrane with a ligand likely to bind directly to the lysozyme; and (3) immunodetection of the bound lysozyme-ligand. A detailed experimental procedure is presented below.
# (§4) Purified chicken egg white lysozyme and human breast milk lysozyme were purchased from Sigma-Aldrich (Madrid, Spain). Two series of aliquot fractions containing 1 μg, 5 μg, and 10 μg of purified lysozyme and a protein molecular weight marker (SeeBlue Plus II™, Invitrogen SA, Barcelona, Spain) were separated electrophoretically through a 4-12% SDS-PAGE gel using the conditions recommended by the supplier (Invitrogen). The gel was then processed for Western blotting as described in Sambrook et al. (1989) according to art known methods, and the proteins were electro-transferred to an Immobilon™ P PVDF membrane (Millipore Corp., Bedford, Mass.). The presence of lysozyme immobilized onto the PVDF membrane was assessed by staining for 1 minute with Ponceau S stain (Sigma-Aldrich, Madrid, Spain), and then destained by vigorous washing for 5 minutes with desionized water. The membrane was divided in two, each portion containing a protein ladder and three quantities of chicken or human lysozyme (1 μg, 5 μg and 10 μg per lane). Each membrane was then incubated for 16 hours at 4° C. in 5 ml of TBST (10 mM Tris-HCl, pH 8.0, 150 mM NaCl, 0.05% weight/vol. Tween 20™,) supplemented with 5% (weight/vol.) of non-fat skimmed dried SVELTESSE™milk (NESTLÉ, ESPAÑA, Barcelona, Spain) (to make TBST-milk). […]
# [4] = test system: human lysozyme; test: as above; type: binding; details: 1, 5, 10 μg immobilized lysozyme; washes with 0.05% Tween 20
# Method: as §3, §4
# [5] = molecular target: T2, LISOZIMA CHIESI (chicken lysozyme) (Gallus gallus, UniProt P00698); test: Inhibition of commercial chicken lysozyme preparation (EnzCheck); type: biochemical; details: lysozyme 4 μg/ml; molar ratio 1:5 to 1:50 GST-Tp17
# T2 construct: natural hen egg-derived chicken lysozyme used in commercially available medicinal preparations; purchased CHIESI ESPAÑA SA, Barcelona, Spain
# Method: (§5) Chicken Lysozyme is a potent antimicrobial enzyme active against both bacteria and viruses. Commercial preparations that contain Lysozyme as an active agent include, but are not limited to, LIZIPAINA® (Boehringer Ingelheim, San Cugat del Vallés, Spain) and LISOZIMA CHIESI (CHIESI ESPAÑA SA, Barcelona, Spain). […] To test this hypothesis, one tablet of each drug, LIZIPAINA® (containing 5 mg chicken lysozyme per tablet) and LISOZIMA CHIESI (containing 250 mg chicken lysozyme per tablet), was resuspended in deionized water (The Millipore Corporation, Bedford, Mass., USA) to adjust the Lysozyme concentration to 4 μg/ml. These samples were then incubated in absence or in presence of increasing amount of either GST-Tp17 or Tp17-HIS. In this experiment the molar ratio between chicken lysozyme and its cognate inhibitor was varied from 1:5 to 1:50 for GST-Tp17 and from 1:16 to 1:160 for Tp17-HIS. After an incubation period of 5 minutes at 20° C. the samples were assayed for lysozyme enzymatic activity using the EnzCheck® Lysozyme assay kit (E-22013; Molecular Probes Inc., Eugene, Oreg., USA) as recommended by the supplier guidelines.
# [6] = molecular target: T3, LIZIPAINA (chicken lysozyme) (Gallus gallus, UniProt P00698); test: as above; type: biochemical; details: lysozyme 4 μg/ml; molar ratio 1:5 to 1:50 GST-Tp17, 1:16 to 1:160 Tp17-HIS
# T3 construct: natural hen egg-derived chicken lysozyme used in commercially available medicinal preparations; purchased Boehringer Ingelheim, San Cugat del Vallés, Spain
# Method: as §5
# [7] = test system: Micrococcus lysodeikticus; details: pH 6.24, 25° C, Micrococcus lysodeikticus substrate; cited from earlier work
# [8] = test system: human lysozyme; test: POD-labeled human lysozyme binding to immobilized β-APP forms (spot blot); details: 10 μg spotted; POD-HuLYS diluted 1/1000
# Method: To test whether the β-APP protein binds huLYS, we performed lysozyme binding assays using purified, recombinant forms of β-APP. Both sAPPα (product number: S9564) and sAPPα (302-612) (product number: S8065) were purchased from Sigma-Aldrich (Tres cantos, Madrid, Spain). 10 μg of each protein was spotted onto a Nytran membrane (Scleicher & Schüell, Dassel, Germany). Non-specific adsorption sites were blocked by incubation for one hour in TBST-milk. After three washes with TBST, the membrane was incubated for one hour with horse radish peroxidase (POD)-labeled human lysozyme diluted 1/1000 in TBST-milk. Next, the membrane was washed three times, for 5 minutes each wash, with TBST. Staining was performed by adding 5 ml of POD chromogenic substrate (TMB, product number: T0565, Sigma). […] Moreover, the β-APP/huLYS protein complex likely serves as a diagnostic marker of Alzheimer's disease.
# [9] = test system: Micrococcus lysodeikticus; test: Antibacterial activity of lysozymes in presence or absence of Tp17 (EnzCheck Lysozyme assay); type: biochemical; details: 1 unit human lysozyme or 230 units rLysozyme; 10 μg GST-Tp17 or Tp17-HIS
# Method: as §1
# In that context, we compared the antibacterial activity of human lysozyme (Ventria Bioscience, Sacramento, Calif., USA) and rLysozyme™ using the EnzCheck Lysozyme assay (E-22013; Molecular Probes, Eugene, Oreg.). We first determined that under the manufacturer's prescribed assay conditions, 1 unit of human lysozyme produced the same intensity of fluorescence as 230 units of rLysozyme™. Next, we measured the fluorescence intensity of either 1 unit of human lysozyme or 230 units of rLysozyme™, in the presence or absence of 10 μg of either GST-Tp17 or Tp17-HIS. […]
# [10] = mature protein; cited from earlier work
# [11] = 83.5 to 1.3 μg/well test protein
# T1 sequence (P00698 19-147): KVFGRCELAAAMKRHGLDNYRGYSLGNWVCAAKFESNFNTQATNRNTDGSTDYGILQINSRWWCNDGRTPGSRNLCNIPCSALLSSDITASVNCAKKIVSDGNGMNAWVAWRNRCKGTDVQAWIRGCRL
# T3 sequence (P00698 19-147): as above
# T2 sequence (P00698 19-147): as above
molecule,measurement,setting,value
GST-Tp17: recombinant fusion protein of GST and Treponema pallidum 17 kDa antigen Tp17 (SEQ ID NO:29),inhibition of acetyl muramidase activity of chicken lysozyme,"[1]; as little as 1.3 μg/well test protein, 10 units lysozyme, 45 min 37° C",> 85%
same,inhibition of acetyl muramidase activity of human lysozyme,"[2]; as little as 1.3 μg/well test protein, 50 units lysozyme, 45 min 37° C",> 85%
same,binding to chicken lysozyme,[3],detected binding
same,binding to human lysozyme,[4],detected binding
same,inhibition of enzymatic antibacterial activity of LISOZIMA CHIESI,[5],strongly inhibited
same,inhibition of enzymatic antibacterial activity of LIZIPAINA,[6],strongly inhibited
natural human breast milk lysozyme: purified natural human breast milk lysozyme (L-6394; Sigma-Aldrich),specific activity,[7],"101,000 units/mg protein"
recombinant human lysozyme: purified recombinant human lysozyme from transgenic rice (159-53LZ-90P; Ventria Bioscience),specific activity,[7],"187,000 units/mg protein"
sAPPα: longer recombinant fragment of β-APP derived from the APP695 isoform (Sigma S9564),binding of POD-labeled huLYS to immobilized protein,[8],binding; also recorded: bound
B1,inhibition of enzymatic antibacterial activity of LIZIPAINA,[6],strongly inhibited
B2,susceptibility of antibacterial activity to inhibition by GST-Tp17 or Tp17-HIS,[9],strongly inhibited
B3,pI,[10],5.51
B4,inhibitory effect on chicken lysozyme acetyl muramidase activity,[1]; [11],did not exert any inhibitory effect
same,inhibitory effect on human lysozyme acetyl muramidase activity,[2]; [11],did not exert any inhibitory effect
same,binding to chicken lysozyme,[3],No signal was detected
same,binding to human lysozyme,[4],No signal was detected

# — US20060275317A1, “Vaccine compositions for prevention of chronic and infectious diseases” (Biokit S.A., priority 2003, published 2006)
